Data taken from patent publication US7125850B2, “Methods of identifying inhibitors of GADD45 polypeptide activity, and inhibitors of such activity” (The United States of America as represented by the …, priority 1999, dated 2006).

How the values were obtained:
RKO cells = test: Flow cytometry cell cycle analysis of RKO cells after base-damaging agent; type: cell-based, human; conditions: parental RKO cells, 25 μg/ml
Protocol: Using flow cytometry analysis, cell cycle distributions of unsynchronized cell populations were performed (for flow cytometry analysis, cells were harvested with 3.5 mM EDTA-PBS buffer, fixed with 70% ethanol for at least 1 hr at 4° C., treated with 20 μg/ml RNase A for 30 min, stained with 60 μg/ml of propidium iodide (PI) for DNA content, and analyzed for cell cycle status with a FACScan cell sorter (Becton Dickinson). At least 10,000 cells were collected. The cell cycle profiles were calculated using the CellQuest and ModFit Lt software. Experiments were repeated at least twice.) The parental human RKO colon carcinoma cells and three isogenic RKO-derived clones stably expressing antisense GADD45 mRNA (discussed above) were analyzed.
Cells were treated with base-damaging agents: either 6.3 Gy of γ-radiation; 5 J/m^2 of UV; or, 25 μg/ml of the base-damaging alkylating agent MMS. These doses for MMS and UV radiation were selected because they were not toxic to these cells in a short-term growth assay. […] The cell cycle status of the cells was then analyzed and quantitated by flow cytometric analysis profile (as described above). […] IR caused a significant accumulation in G2/M with concomitant reductions in G1 and S in all four cell lines.

cellular Cdc2 = molecular target: T1, cellular Cdc2 (Homo sapiens, UniProt P06493); test: GST pull-down from RKO cell lysate, immunoblot for Cdc2; type: binding; conditions: 100 ng protein, 1 mg RKO cellular protein
T1 construct: GST-GADD45 fusion protein were incubated with one mg of RKO cellular protein; endogenous in cells; host or cells: RKO (human colon carcinoma)
T1 sequence (P06493 whole entry, the tested form may be a part): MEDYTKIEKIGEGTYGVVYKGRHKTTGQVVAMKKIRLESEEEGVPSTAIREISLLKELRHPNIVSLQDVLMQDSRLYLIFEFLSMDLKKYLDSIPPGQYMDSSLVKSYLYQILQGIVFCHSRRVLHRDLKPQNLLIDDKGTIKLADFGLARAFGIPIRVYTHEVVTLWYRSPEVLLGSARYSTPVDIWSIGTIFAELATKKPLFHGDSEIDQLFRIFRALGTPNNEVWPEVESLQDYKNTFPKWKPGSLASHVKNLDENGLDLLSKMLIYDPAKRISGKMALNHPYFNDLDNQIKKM
Source text: For these experiments, a recombinant glutathione-S-transferase (GST)/GADD45 fusion protein was constructed. The GADD45 insert was PCR amplified from pHul45B2 using the following primers: (SEQ ID NO:3) 5′[…] 3′ and (SEQ ID NO:4) 5′[…] 3′. Products were cloned into a pcrII vector using the TA cloning kit (Invitrogen, San Diego, Calif.). A representative clone was confirmed by sequencing. The selected insert was removed by XhoI and NotI digestion, gel purified using the Wizard DNA Purification Kit (Promega, Madison, Wis.), and ligated into the XhoI/ NotI digested pGEX4T vector (Pharmacia, Piscataway, N.J.). GST-GADD45 fusion protein induction was prepared from freshly transformed BL21 bacterial cells (Novagen). 150 ml of overnight culture was diluted into 1L of LB with ampicillin and grown at 37° C. to late growth phase (OD600 was approximately 0.8). […]
To detect binding of cellular Cdc2 to GST-tagged GADD45, 100 ng of GST or GST-GADD45 fusion protein were incubated with one mg of RKO cellular protein for 4 hr at […]. […] Antibody was detected by a chemiluminescence system in accordance with the instructions of the manufacturer (Amersham, Buckinghamshire, England)
(§1) GST-GADD45 fusion protein or GST alone, which were linked to Sepharose beads, were incubated with cellular lysates, isolated, and analyzed by immunoblotting, as described above.

cyclin B1 = molecular target: T2, cyclin B1 (Homo sapiens, UniProt P14635); test: GST pull-down from RKO cell lysate, immunoblot for cyclin B1; type: binding; conditions: 100 ng protein, 1 mg RKO cellular protein
T2 construct: endogenous in cells; host or cells: RKO (human colon carcinoma)
T2 sequence (P14635 whole entry): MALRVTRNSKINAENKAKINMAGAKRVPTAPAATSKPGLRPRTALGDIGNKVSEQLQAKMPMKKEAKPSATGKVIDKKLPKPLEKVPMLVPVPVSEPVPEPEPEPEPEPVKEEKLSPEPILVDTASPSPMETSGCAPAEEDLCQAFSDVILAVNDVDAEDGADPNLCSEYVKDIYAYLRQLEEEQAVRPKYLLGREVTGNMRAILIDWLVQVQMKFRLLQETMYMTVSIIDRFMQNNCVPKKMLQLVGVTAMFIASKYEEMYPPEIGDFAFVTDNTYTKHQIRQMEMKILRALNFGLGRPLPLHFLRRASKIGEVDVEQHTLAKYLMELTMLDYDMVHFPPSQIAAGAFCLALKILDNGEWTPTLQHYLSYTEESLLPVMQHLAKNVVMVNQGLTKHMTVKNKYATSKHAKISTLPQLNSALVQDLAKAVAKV
Protocol: To detect binding of cellular Cdc2 to GST-tagged GADD45, 100 ng of GST or GST-GADD45 fusion protein were incubated with one mg of RKO cellular protein for 4 hr at […]. Complexes were then washed three times with lysis buffer and loaded onto a 12% SDS-PAGE gel. Following electrophoresis, the proteins were electrophoretically transferred to Immobin membranes (Millipore, Bedford, Mass.). The membranes were blocked for 30 min in 5% nonfat milk and then incubated with anti-Cdc2 (Santa Cruz Biotechnology, Santa Cruz, Calif.) and anti-cyclin B1 (Pharmingen, San Diego, Calif.) monoclonal mouse antibodies. Antibody was detected by a chemiluminescence system in accordance with the instructions of the manufacturer (Amersham, Buckinghamshire, England)
as §1

Cdk2 = molecular target: T3, Cdk2 (Homo sapiens, UniProt P24941); test: GST pull-down from RKO cell lysate, immunoblot for Cdk2; type: binding
T3 construct: GST-GADD45 fusion protein were incubated with one mg of RKO cellular protein; endogenous in cells; host or cells: RKO (human colon carcinoma)

Cdc2 = Cdc2 (Homo sapiens, UniProt P06493); test: Co-immunoprecipitation of Myc-tagged GADD45 with Cdc2 antibody in transfected RKO cells; type: cell-based; set-up: endogenous in cells; host or cells: RKO (human colon carcinoma)
Chain of Cdc2 (P06493 whole entry): as the sequence (P06493 whole entry, the tested form may be a part) above
Source text: In order to determine if GADD45 associates with Cdc2 in vivo, RKO cells were transfected with Myc-epitope-tagged expression vectors. To construct the Myc-tag-GADD45 expression vector, internal GADD45 primers were designed to contain an in-frame 5′ NdeI site and were used to amplify the desired regions from a human GADD45 cDNA construct. PCR products were cloned into the pcrII vector using the TA Kit (Invitrogen, Carlsbad, Calif.) and sequenced prior to subcloning into XhoI/XbaI cut pCS2MT. This allowed expression of the GADD45 constructs tagged with 6 copies of the Myc epitope recognized by the monoclonal 9E10 antibody at the amino-terminus (Rupp (1994) Genes Dev. 8:1311–1323; Turner (1994) Genes Dev. 8:1434–1447).
For mammalian cell transfection, 10^6 RKO cells were seeded onto 100 mm plates the day before transfection. […]
Lysates from cells expressing Myc-tag-GADD45 fusion protein or unfused Myc-tag were immunoprecipitated with antibodies to c-myc and Cdc2 (both from Santa Cruz Biotech.). […] Following immunoblot analysis, the Myc-tagged GADD45 protein was detected in both the cell lysate and after immunoprecipitation with anti-Myc antibody. […] After immunoprecipitation with Cdc2 antibody, Myc-tagged GADD45 was also detected. No GADD45 was detected with (i.e., was co-immunoprecipitated by) the control antibodies. […]

## COS(C)(=O)=O [MMS, methyl methanesulfonate]
RKO cells
  cell cycle accumulation: accumulated in S and G2/M

B1: GST-GADD45: recombinant glutathione-S-transferase (GST)/GADD45 fusion protein on Sepharose beads (protein)
chain: TLEEFSAGEQKTERMDKVGDALEEVLSKALSQRTITVGVYEAAKLLNVDPDNVVLCLLAADEDDDRDVALQIHFTLIQAFCCENDINILRVSNPGRLAELLLLETDAGPAASEGAEQPPDLHCVLVTNPHSSQWKDPALSQLICFCRESRYMDQWVPVINLPER
modifications: left off: a dimerising Fc or GST
notes: recombinant glutathione-S-transferase (GST)/GADD45 fusion protein on Sepharose beads
Cellular Cdc2
  association with cellular Cdc2: found to associate
Cyclin B1
  association with cyclin B1: did not associate
Cdk2
  association with Cdk2: No association

B2: Myc-tagged GADD45: GADD45 tagged with 6 copies of the Myc epitope, expressed in RKO cells (protein)
chain: MTLEEFSAGEQKTERMDKVGDALEEVLSKALSQRTITVGVYEAAKLLNVDPDNVVLCLLAADEDDDRDVALQIHFTLIQAFCCENDINILRVSNPGRLAELLLLETDAGPAASEGAEQPPDLHCVLVTNPHSSQWKDPALSQLICFCRESRYMDQWVPVINLPER
modifications: left off: small tags and cut ends
Cdc2
  detection after immunoprecipitation with Cdc2 antibody: also detected
